B1: SCNN1D (parent)
chain: RRPSPVLRHLELLDEFARENIDSL
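Further: lentivirally expressed fusions sorted by FACS into six bins by GFP to DsRed ratio, PSI derived from sequencing read proportions per bin multiplied by bin number.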

Variants of: B1
Experiment: protein stability index of a GFP-peptide fusion (GPS, HEK-293T) (PSI 1-6); higher = more stable
Conditions: c terminus: a fixed tail appended
Variant RRPSPVLRHLTLLDEFARENIDSL [E11T] has a protein stability index of 2.41. RRPSPVLRHLQLLDEFARENIDSL [E11Q] showed a protein stability index of 3.06. RRPSPVLRHLNLLDEFARENIDSL [E11N] gave a protein stability index of 3.5. Variant RRPSPVLRHLELLDECARENIDSL [F16C] has a protein stability index of 3.61. In the case of RRPSPVLRHLELLDEGARENIDSL [F16G], the protein stability index is reported as 4.12. In the case of RRPSPVLRHLELLDERARENIDSL [F16R], the protein stability index is reported as 4.28. RRPSPVLRHLELLDEYARENIDSL [F16Y] showed a protein stability index of 3.09. With RRPSPVLRHLELLDEKARENIDSL [F16K] the protein stability index was 3.91. Variant RRPSPVLRHLELLDEIARENIDSL [F16I] has a protein stability index of 2.84. RRPSPVLRHLELLDEWARENIDSL [F16W] gave a protein stability index of 2.64. Work on RRPSPVLRHLELLDENARENIDSL [F16N] yielded a protein stability index of 3.88. Work on RRPSPVLRHLELLDEQARENIDSL [F16Q] yielded a protein stability index of 3.14. In the case of RRPSPVLRHLELLDEHARENIDSL [F16H], the protein stability index is reported as 3.77. For RRPSPVLRHLELLDEVARENIDSL [F16V], the protein stability index was 3.95. For RRPSPVLRHLELLDEEARENIDSL [F16E], the protein stability index was 3.63. With RRPSPVLRHLELLDETARENIDSL [F16T] the protein stability index was 4.21. In the case of RRPSPVLRHLELLDEPARENIDSL [F16P], the protein stability index is reported as 3.72. RRPSPVLRHLELLDEMARENIDSL [F16M] showed a protein stability index of 2.25. With RRPSPVLRHLELLDEAARENIDSL [F16A] the protein stability index was 2.61. Work on RRPSPVLRHLELLDELARENIDSL [F16L] yielded a protein stability index of 3.36. Variant RRPSPVLRHLELLDEDARENIDSL [F16D] has a protein stability index of 4.61. In the case of RRPSPVLRHLELLDESARENIDSL [F16S], the protein stability index is reported as 4.57. Variant RRPSPVLRSLELLDEFARENIDSL [H9S] has a protein stability index of 3.68. Variant RRPSPVLRPLELLDEFARENIDSL [H9P] has a protein stability index of 3.95. Variant RRPSPVLRGLELLDEFARENIDSL [H9G] has a protein stability index of 3.76. RRPSPVLRFLELLDEFARENIDSL [H9F] gave a protein stability index of 1.74. RRPSPVLRVLELLDEFARENIDSL [H9V] showed a protein stability index of 2.4. In the case of RRPSPVLRYLELLDEFARENIDSL [H9Y], the protein stability index is reported as 1.83. RRPSPVLRTLELLDEFARENIDSL [H9T] gave a protein stability index of 3.83. RRPSPVLRNLELLDEFARENIDSL [H9N] showed a protein stability index of 4.09. For RRPSPVLRQLELLDEFARENIDSL [H9Q], the protein stability index was 3.79. In the case of RRPSPVLRLLELLDEFARENIDSL [H9L], the protein stability index is reported as 2.17. For RRPSPVLRWLELLDEFARENIDSL [H9W], the protein stability index was 1.69. In the case of RRPSPVLRKLELLDEFARENIDSL [H9K], the protein stability index is reported as 3.28. Variant RRPSPVLRRLELLDEFARENIDSL [H9R] has a protein stability index of 3.92. RRPSPVLRMLELLDEFARENIDSL [H9M] gave a protein stability index of 1.89. RRPSPVLRILELLDEFARENIDSL [H9I] gave a protein stability index of 2.24. In the case of RRPSPVLRHLELNDEFARENIDSL [L13N], the protein stability index is reported as 4.16. RRPSPVLRHLELQDEFARENIDSL [L13Q] showed a protein stability index of 3.78. In the case of RRPSPVLRHLELGDEFARENIDSL [L13G], the protein stability index is reported as 4.23. RRPSPVLRHLELKDEFARENIDSL [L13K] gave a protein stability index of 3.9. RRPSPVLRHLELTDEFARENIDSL [L13T] gave a protein stability index of 4.13. In the case of RRPSPVLRHLELSDEFARENIDSL [L13S], the protein stability index is reported as 4.26. Work on RRPSPVLRHLELCDEFARENIDSL [L13C] yielded a protein stability index of 3.57. Variant RRPSPVLRHLELRDEFARENIDSL [L13R] has a protein stability index of 3.6. Work on RRPSPVLRHLELMDEFARENIDSL [L13M] yielded a protein stability index of 3.59. RRPSPVLRHLELEDEFARENIDSL [L13E] gave a protein stability index of 4.48. Variant RRPSPVLRHLELVDEFARENIDSL [L13V] has a protein stability index of 3.6. Work on RRPSPVLRHLELADEFARENIDSL [L13A] yielded a protein stability index of 3.98. Variant RRPSPVLRHLELYDEFARENIDSL [L13Y] has a protein stability index of 3.19. With RRPSPVLRHLELFDEFARENIDSL [L13F] the protein stability index was 3.14. For RRPSPVLRHLELPDEFARENIDSL [L13P], the protein stability index was 4.21. RRPSPVLRHLELIDEFARENIDSL [L13I] showed a protein stability index of 3.73. For RRPSPVLRHLELWDEFARENIDSL [L13W], the protein stability index was 3.19. In the case of RRPSPVLRHLELDDEFARENIDSL [L13D], the protein stability index is reported as 4.57. RRPSPVLRHLELHDEFARENIDSL [L13H] showed a protein stability index of 4.31. Variant RRPSPVLRHLEFLDEFARENIDSL [L12F] has a protein stability index of 2.81. For RRPSPVLRHLEMLDEFARENIDSL [L12M], the protein stability index was 3.98. RRPSPVLRHLEPLDEFARENIDSL [L12P] gave a protein stability index of 4.4. In the case of RRPSPVLRHLEYLDEFARENIDSL [L12Y], the protein stability index is reported as 3.56. In the case of RRPSPVLRHLEDLDEFARENIDSL [L12D], the protein stability index is reported as 4.64. Work on RRPSPVLRHLEALDEFARENIDSL [L12A] yielded a protein stability index of 3.81. With RRPSPVLRHLEGLDEFARENIDSL [L12G] the protein stability index was 4.09. RRPSPVLRHLEILDEFARENIDSL [L12I] gave a protein stability index of 3.65. RRPSPVLRHLEVLDEFARENIDSL [L12V] gave a protein stability index of 4.05. In the case of RRPSPVLRHLENLDEFARENIDSL [L12N], the protein stability index is reported as 3.9. RRPSPVLRHLETLDEFARENIDSL [L12T] gave a protein stability index of 4.35. For RRPSPVLRHLEKLDEFARENIDSL [L12K], the protein stability index was 4.1. Variant RRPSPVLRHLECLDEFARENIDSL [L12C] has a protein stability index of 3.97. Variant RRPSPVLRHLESLDEFARENIDSL [L12S] has a protein stability index of 4.4. For RRPSPVLRHLEQLDEFARENIDSL [L12Q], the protein stability index was 4.51. In the case of RRPSPVLRHLEHLDEFARENIDSL [L12H], the protein stability index is reported as 4.25. RRPSPVLRHLERLDEFARENIDSL [L12R] gave a protein stability index of 3.63. RRPSPVLRHLEELDEFARENIDSL [L12E] gave a protein stability index of 4.08. RRPSPVLRHLEWLDEFARENIDSL [L12W] gave a protein stability index of 3.1. RRPSPVLRHLELLDEFAGENIDSL [R18G] showed a protein stability index of 3.6. For RRPSPVLRHLELLDEFAWENIDSL [R18W], the protein stability index was 1.73. For RRPSPVLRHLELLDEFASENIDSL [R18S], the protein stability index was 3.26. With RRPSPVLRHLELLDEFAYENIDSL [R18Y] the protein stability index was 2.7. RRPSPVLRHLELLDEFAAENIDSL [R18A] showed a protein stability index of 2.37. With RRPSPVLRHLELLDEFAVENIDSL [R18V] the protein stability index was 2.35. For RRPSPVLRHLELLDEFAQENIDSL [R18Q], the protein stability index was 2.84. Variant RRPSPVLRHLELLDEFAPENIDSL [R18P] has a protein stability index of 4.25. Work on RRPSPVLRHLELLDEFAIENIDSL [R18I] yielded a protein stability index of 2.44. Work on RRPSPVLRHLELLDEFAFENIDSL [R18F] yielded a protein stability index of 3. In the case of RRPSPVLRHLELLDEFAKENIDSL [R18K], the protein stability index is reported as 3.67. Work on RRPSPVLRHLELLDEFAEENIDSL [R18E] yielded a protein stability index of 3.12. With RRPSPVLRHLELLDEFATENIDSL [R18T] the protein stability index was 3.16. RRPSPVLRHLELLDEFANENIDSL [R18N] gave a protein stability index of 2.42. In the case of RRPSPVLRHLELLDEFAHENIDSL [R18H], the protein stability index is reported as 3.17. Work on RRPSPVLRHLELLDEFALENIDSL [R18L] yielded a protein stability index of 2.43. Work on RRPSPVLRHLELLDEFADENIDSL [R18D] yielded a protein stability index of 3.44. Work on RRPSPVLRHLELLDEFAMENIDSL [R18M] yielded a protein stability index of 2.98. With RRPSPVLRHLELLDEFACENIDSL [R18C] the protein stability index was 2.48.
